Patent US20090311237A1, “Combination therapy using a soluble hyaluronidase and a bisphosphonate” (priority 2008, published 2009)

Experiments:
[1] = tested on: Sprague Dawley rats; experiment: Injection site reactions (gross ISR incidence, lesion area) after intradermal injection of zoledronic acid with or without rHuPH20; assay type: in vivo, rat; conditions: for shift of half maximal effect (EC50) of ZA concentration vs lesion area curve: with vs without 10,000 U/mL rHuPH20
Procedure: A rodent model of local injection site injury caused by ZA injection was employed for the study. […] Injection into the dermis facilitates external visualization and assessment of the irritant.
Nine to ten week old female Sprague Dawley rats, having approximate body weight of 200-250 grams, were employed for the study. One day prior to injection, rats were shaved and hair on the back and flank area were removed by Nair® cream (exposure less than 1 min to depilation cream) followed by deep wash with warm tap water. On the day of dosing, all rats were injected intradermally in flank area (one or two injection spots per side), with 0.1 or 0.2 mL as indicated of zoledronic acid solution, with or without rHuPH20, at each corresponding concentration as shown in study design table. Injection site appearance was observed and quantified by blind assessment each day following the injection until the end of the study, at which time animals were sacrificed and the skin around the dosing area as well as a part of the skin that was not effected by the dosing were collected and fixed in 10% neutral buffered formalin (NBF) and further embedded in paraffin, 5 μm sections were cut for H&E stain and histopathology evaluation.
Lesion area was calculated by the following formula: W×L×¼π. Quantitative results were analyzed using one-way analysis of variance (ANOVA) method, followed by Dunnett's comparison method (Prizm 4 program). The probability values of less than 0.05 (two-tailed) were used as the critical level of significance for all tests. Groups with a sample size of two were excluded from analysis. If the sample size was 2 for the control group, there were no statistical analyses at that interval for any of the groups. Histopathologic findings were characterized by semi-quantitative analysis of necrosis and infiltration in the skin tissue. The incidences of each finding were compared with control groups by Chi-square test.
Prior to ZA intradermal injection, rats were randomized by body weight into 7 groups of 1 or 2 rats per group (Table 2). Rats were injected with either 0.1 mL or 0.2 mL of each corresponding concentration intradermally at two separate locations on each shaved flank side for a total of 4 injections for each animal. Injection sites were observed daily post-injection for four days. Pictures of injection site reaction (ISR) area were captured by digital camera and lesion area was scored for induration, erythema, or ulceration. Two perpendicular diameters (width & length) of injection site lesion were measured by microcaliper. The lesion area was defined as the area bounded by the outer edge of the erythemic zone. Upon completion of the study, the animals were euthanized and skin at the injection site and from an untreated area of the back of the rat were excised, mounted flat onto a piece of cardboard, and placed in 10% NBF.
A series of experiments were conducted in which various dosing concentrations of rHuPH20 were tested for the ability to reduce acute injection site lesions. Prior to ZA intra-dermal injection, rats were randomized by body weight into 11 groups of 2 rats per group. Rats were injected intradermally with 0.1 mL of each co-formulated solution as shown in Table 5 and observed daily with ISR development assessed as in Section B. Four days after injection, rats were sacrificed and the skin at the injection site as well as untreated skin from the back was excised, mounted flat onto a piece of cardboard, and placed in 10% NBF.
Prior to ZA intra-dermal injection, rats were randomized by body weight into 6 groups of 3 rats per group (Table 6). Rats were intradermally injected with 0.1 mL of each corresponding co-formulated solution at two separate locations, two on each shaved flank side, for a total of 4 injections for each animal. Injection sites were observed daily with ISR development assessed as in Section B for 6 days. […]

[2] = Hyaluronidase activity microturbidity (turbidometric) assay; assay type: biochemical; conditions: purified soluble rHuPH20 (Gen1, 5 L bioreactor); USP reference standard
Procedure: Hyaluronidase activity can be assessed using methods well known in the art. In one example, activity is measured using a microturbidity assay. This is based on the formation of an insoluble precipitate when hyaluronic acid binds with serum albumin. The activity is measured by incubating hyaluronidase with sodium hyaluronate (hyaluronic acid) for a set period of time (e.g. 10 minutes) and then precipitating the undigested sodium hyaluronate with the addition of acidified serum albumin. The turbidity of the resulting sample is measured at 640 nm after an additional development period. […] Following incubation with hyaluronidase, the residual biotinylated hyaluronic acid substrate is detected using an avidin-peroxidase reaction, and compared to that obtained following reaction with hyaluronidase standards of known activity.
Hyaluronidase activity of soluble rHuPH20 in samples such as cell cultures, purification fractions and purified solutions was determined using a turbidometric assay, which based on the formation of an insoluble precipitate when hyaluronic acid binds with serum albumin. The activity is measured by incubating soluble rHuPH20 with sodium hyaluronate (hyaluronic acid) for a set period of time (10 minutes) and then precipitating the undigested sodium hyaluronate with the addition of acidified serum albumin. […]

B1: rHuPH20: soluble form of human PH20 hyaluronidase recombinantly expressed in Chinese Hamster Ovary (CHO) cells (protein, listed as Homo sapiens)
chain: LNFRAPPVIPNVPFLWAWNAPSEFCLGKFDEPLDMSLFSFIGSPRINATGQGVTIFYVDRLGYYPYIDSITGVTVNGGIPQKISLQDHLDKAKKDITFYMPVDNLGMAVIDWEEWRPTWARNWKPKDVYKNRSIELVQQQNVQLSLTEATEKAKQEFEKAGKDFLVETIKLGKLLRPNHLWGYYLFPDCYNHHYKKPGYNGSCFNVEIKRNDDLSWLWNESTALYPSIYLNTQQSPVAATLYVRNRVREAIRVSKIPDAKSPLPVFAYTRIVFTDQVLKFLSQDELVYTFGETVALGASGIVIWGTLSIMRSMKSCLLLDNYMETILNPYIINVTLAAKMCSQVLCQEQGVCIRKNWNSSDYLHLNPDNFAIQLEKGGKFTVRGKPTLEDLEQFSEKFYCSCYSTLSCKEKADVKDTDAVDVCIADGVCIDAFLKPPMETEEPQIFY
modifications: soluble rHuPH20 1-447
notes: soluble form of human PH20 hyaluronidase recombinantly expressed in Chinese Hamster Ovary (CHO) cells
- rHuPH20 concentration with maximal effect on ISR formation ([1]; rat ID model, preliminary experiments): 10,000 U/mL
- suppression of injection site lesion formation ([1]; rat ID, 10,000 U/mL rHuPH20 co-formulated with ZA up to 0.05 mg/mL): complete suppression
- threshold of rHuPH20 in lesion area reduction ([1]; rat ID, all ZA concentrations tested (0.05 to 0.4 mg/ml)): 100 U/mL
- rHuPH20 concentration at which maximal activity was reached ([1]; rat ID, regardless of ZA concentration (0.05 to 0.4 mg/ml)): 1000 U/mL
- shift of half maximal effect (EC50) of ZA concentration vs lesion area curve ([1]; rat ID, day 2): approximately 2.4 fold
- shift of half maximal effect (EC50) of ZA concentration vs lesion area curve ([1]; rat ID, day 3): ~3.3 fold
- shift of half maximal effect (EC50) of ZA concentration vs lesion area curve ([1]; rat ID, day 4): ~5.7 fold
- specific activity [2]: > 65,000 USP Units/mg protein
